Data published in patent US7384761 (RIGEL PHARMACEUTICALS, dated 2008).

T1: Rad9
T1 chain: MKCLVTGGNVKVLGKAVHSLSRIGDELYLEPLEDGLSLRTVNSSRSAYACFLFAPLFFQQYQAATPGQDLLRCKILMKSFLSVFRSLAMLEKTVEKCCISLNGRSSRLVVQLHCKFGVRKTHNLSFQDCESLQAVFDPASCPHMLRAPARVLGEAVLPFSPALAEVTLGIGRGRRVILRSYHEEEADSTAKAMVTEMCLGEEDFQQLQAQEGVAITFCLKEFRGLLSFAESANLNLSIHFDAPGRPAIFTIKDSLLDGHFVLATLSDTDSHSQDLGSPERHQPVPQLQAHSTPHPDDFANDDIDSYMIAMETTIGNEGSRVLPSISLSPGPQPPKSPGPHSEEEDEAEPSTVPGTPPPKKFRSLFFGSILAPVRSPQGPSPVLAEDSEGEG

T2: protein phosphatase 5 (PP5) (Homo sapiens (Human), UniProt P53041 1-499, limits assumed)
T2 construct: Wildtype PP5; also called protein phosphatase type 5; cell cycle protein
T2 sequence: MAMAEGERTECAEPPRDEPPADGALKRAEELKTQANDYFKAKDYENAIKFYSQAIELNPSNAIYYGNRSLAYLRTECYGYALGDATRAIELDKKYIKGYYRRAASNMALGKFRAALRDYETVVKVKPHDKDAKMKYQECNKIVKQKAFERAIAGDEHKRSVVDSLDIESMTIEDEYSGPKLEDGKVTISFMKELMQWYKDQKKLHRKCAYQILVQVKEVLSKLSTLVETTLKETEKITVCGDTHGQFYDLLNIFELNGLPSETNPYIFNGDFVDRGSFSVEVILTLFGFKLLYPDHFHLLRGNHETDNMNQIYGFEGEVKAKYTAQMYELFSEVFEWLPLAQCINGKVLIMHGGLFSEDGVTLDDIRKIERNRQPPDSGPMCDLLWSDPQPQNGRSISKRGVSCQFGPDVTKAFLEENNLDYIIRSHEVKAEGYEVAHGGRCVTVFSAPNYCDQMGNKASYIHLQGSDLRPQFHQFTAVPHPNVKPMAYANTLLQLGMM


How the values were obtained:
Rad9 = target: T1, Rad9
[1] = target: T2, protein phosphatase 5 (PP5); assay: coimmunoprecipitation, gel

binding result [1] | Binder | dephosphorylation of Rad9 (Rad9) | dephosphorylation of Rad9 in vitro (Rad9)
 | protein phosphatase 5 (PP5) (protein) MAMAEGERTECAEPPRDEPPADGALKRAEELKTQANDYFKAKDYENAIKFYSQAIELNPSNAIYYGNRSLAYLRTECYGYALGDATRAIELDKKYIKGYYRRAASNMALGKFRAALRDYETVVKVKPHDKDAKMKYQECNKIVKQKAFERAIAGDEHKRSVVDSLDIESMTIEDEYSGPKLEDGKVTISFMKELMQWYKDQKKLHRKCAYQILVQVKEVLSKLSTLVETTLKETEKITVCGDTHGQFYDLLNIFELNGLPSETNPYIFNGDFVDRGSFSVEVILTLFGFKLLYPDHFHLLRGNHETDNMNQIYGFEGEVKAKYTAQMYELFSEVFEWLPLAQCINGKVLIMHGGLFSEDGVTLDDIRKIERNRQPPDSGPMCDLLWSDPQPQNGRSISKRGVSCQFGPDVTKAFLEENNLDYIIRSHEVKAEGYEVAHGGRCVTVFSAPNYCDQMGNKASYIHLQGSDLRPQFHQFTAVPHPNVKPMAYANTLLQLGMM | cotransfection of PP5 with Rad9 in HeLa cells leads to dephosphorylation of Rad9 which is dependent on phophatase activity of PP5 | PP5 dephosphorylates Rad9 directly in vitro
binds | Rad9 (other, also called human Rad9) MKCLVTGGNVKVLGKAVHSLSRIGDELYLEPLEDGLSLRTVNSSRSAYACFLFAPLFFQQYQAATPGQDLLRCKILMKSFLSVFRSLAMLEKTVEKCCISLNGRSSRLVVQLHCKFGVRKTHNLSFQDCESLQAVFDPASCPHMLRAPARVLGEAVLPFSPALAEVTLGIGRGRRVILRSYHEEEADSTAKAMVTEMCLGEEDFQQLQAQEGVAITFCLKEFRGLLSFAESANLNLSIHFDAPGRPAIFTIKDSLLDGHFVLATLSDTDSHSQDLGSPERHQPVPQLQAHSTPHPDDFANDDIDSYMIAMETTIGNEGSRVLPSISLSPGPQPPKSPGPHSEEEDEAEPSTVPGTPPPKKFRSLFFGSILAPVRSPQGPSPVLAEDSEGEG |  | 
